Data: PMC10779317, “Crosstalk between G-Quadruplexes and Dnmt3a-Mediated Methylation of the c-MYC Oncogene Promoter”

B1: 30Uf/30Df (dsDNA)
DNA 1: CTGAATACTACTTGCGCTCTCTAACCTGAT
DNA 2: ATCAGGTTAGAGAGCGCAAGTAGTATTCAG

How the values were obtained:
M.SssI = M.SssI (UniProt P15840 1-386); experiment: fluorescence polarization; 100 uM AdoHcy; 20 mM HEPES-NaOH pH 7.5, 100 mM KCl, 1 mM EDTA, 1 mM DTT, 100 uM AdoHcy, 10 nM DNA (60 nM for PWWP); FP temperature not stated; methylation competition at 37 C; conditions: protein: recombinant; label: 5'-FAM; intramolecular parallel G4
M.SssI, sequence (P15840 whole entry): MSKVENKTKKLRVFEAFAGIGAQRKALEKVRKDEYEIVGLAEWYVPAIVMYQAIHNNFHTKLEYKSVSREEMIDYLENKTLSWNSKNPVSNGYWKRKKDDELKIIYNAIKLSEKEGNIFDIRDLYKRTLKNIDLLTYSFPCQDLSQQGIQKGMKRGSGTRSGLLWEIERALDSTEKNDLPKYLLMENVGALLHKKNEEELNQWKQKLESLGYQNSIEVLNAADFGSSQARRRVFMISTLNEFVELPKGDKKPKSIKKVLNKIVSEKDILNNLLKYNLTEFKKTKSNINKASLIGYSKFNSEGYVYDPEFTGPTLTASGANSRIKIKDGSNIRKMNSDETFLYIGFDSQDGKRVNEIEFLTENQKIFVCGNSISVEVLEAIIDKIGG

Dnmt3a-CD = Dnmt3a-CD (mouse (murine), UniProt O88508 630-908); experiment: as above; conditions: protein: recombinant, tags: N-terminal 6xHis, chain copies: 4
Dnmt3a PWWP domain = Dnmt3a PWWP domain (UniProt O88508 288-346); experiment: fluorescence polarization; 100 uM AdoHcy; 60 nM DNA; 20 mM HEPES-NaOH pH 7.5, 100 mM KCl, 1 mM EDTA, 1 mM DTT, 100 uM AdoHcy, 10 nM DNA (60 nM for PWWP); FP temperature not stated; methylation competition at 37 C; conditions: protein: recombinant; label: 5'-FAM; intramolecular parallel G4

Binder	Kd (M.SssI)	Kd (Dnmt3a-CD; label: 5'-FAM, intramolecular parallel G4)	Kd (Dnmt3a PWWP domain)	Kd (Dnmt3a-CD; label: 5'-FAM on both strands, blunt)
TGGGGAGGGTGGGGAGGGTGGGGAAGG (structured_DNA) [27fG4]	1200 ± 600 nM	120 ± 30 nM	900 ± 200 nM	
B1				220 ± 30 nM
